Measured values published in PMC12232546 (Proceedings of the National Academy of Sciences of the …, 2025).

Molecular target: VASP-EVH1 (human VASP aa1-115, GST cleaved with thrombin) (human, UniProt P50552 1-115)
Assay: ITC

Sequence of VASP-EVH1 (human VASP aa1-115, GST cleaved with thrombin) (P50552 1-115): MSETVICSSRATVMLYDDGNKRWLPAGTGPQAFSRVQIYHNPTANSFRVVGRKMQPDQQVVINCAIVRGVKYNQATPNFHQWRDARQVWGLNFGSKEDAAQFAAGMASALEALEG

Which Kd does the source give for Ac-SEDNLPPPPAEFSYP-NH2 [15-mer WAVE2-derived peptide Ac-SEDNLPPPPAEFSYP-NH2] here?
The Kd was 250 µM.
